For the assay, the target named is pyrrolated BSA (pyrBSA), P02769. The experiment in a line: ELISA. The conditions noted are these: chain shown with the change, left panel, antigen pyrBSA, read off a plot.
Sequence of pyrrolated BSA (pyrBSA), P02769 (P02769 25-607): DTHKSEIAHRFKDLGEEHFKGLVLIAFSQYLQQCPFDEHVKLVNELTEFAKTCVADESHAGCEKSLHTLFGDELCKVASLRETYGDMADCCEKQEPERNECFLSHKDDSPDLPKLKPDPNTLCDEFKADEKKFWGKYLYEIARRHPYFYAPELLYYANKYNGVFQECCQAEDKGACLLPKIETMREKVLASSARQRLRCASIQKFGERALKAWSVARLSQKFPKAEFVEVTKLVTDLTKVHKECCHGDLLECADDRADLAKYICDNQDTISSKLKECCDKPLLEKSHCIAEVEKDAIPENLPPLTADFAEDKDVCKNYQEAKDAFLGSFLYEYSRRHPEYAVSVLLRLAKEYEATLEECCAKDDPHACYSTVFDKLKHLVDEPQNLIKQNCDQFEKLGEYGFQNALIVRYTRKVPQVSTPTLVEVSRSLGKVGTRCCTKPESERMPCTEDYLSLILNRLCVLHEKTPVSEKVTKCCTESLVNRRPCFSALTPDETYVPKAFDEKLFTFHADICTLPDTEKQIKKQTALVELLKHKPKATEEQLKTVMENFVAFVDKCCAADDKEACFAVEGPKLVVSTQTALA

B1: VH DO1 (VH-His6 of scFv DO1) R97A (protein)
chain: EVQLQQSGPELVKPGASVKMSCKASGYTFTSYVMHWVKQKPGQGLEWIGYINPHNDGTKYNEKFKGKATLTSDKSSSTAYMELSSLTSEDSAVYYCARKLAGFAYWGQGTLVTVSS
As to B1, the response was 0.65 Abs (490 nm) (VH about 6.4 nM (4th point of the titration, read from the log x axis), parent: est. 1.7) and 1.9 Abs (490 nm) (VH about 16 nM (5th point of the titration, read from the log x axis), parent: est. 3.1).

Values taken from publication PMC10838295.
